Patent publication US20230295310A1 (ABCELLERA BIOLOGICS, published 2023)

What follows are binders tested against human EGFR, C-terminal eGFP-tagged, on CHO-K1 cells (human, UniProt P00533 25-1210) (assay: cell-based or functional assay).

| EC50 CHO-K1 EGFR Low (nM); T cell activation bioassay, luciferase | EC50 CHO-K1 EGFR Med (nM); T cell activation bioassay, luciferase | Binder |
| --- | --- | --- |
| 0.0499 nM | 0.0038 nM | GOMP001_bsAb_040 (bispecific antibody, human IgG1, kappa, L234A L235A) heavy 1: EVQLVESGGGLVKTGGSHRLSCVASGFSFKKAWMNWVRYAPGKGLEWVGRIKRNSDGGTTDYAARVKGRFILSRDDSKNTLYLQMNSLKTEDTAVYYCTTLDSSSWYVGYYYMDVWGRGTTVTVSSASTKGPSVFPLAPSSKSTSGGTAALGCLVKDYFPEPVTVSWNSGALTSGVHTFPAVLQSSGLYSLSSVVTVPSSSLGTQTYICNVNHKPSNTKVDKKVEPKSCDKTHTCPPCPAPEAAGGPSVFLFPPKPKDTLMISRTPEVTCVVVDVSHEDPEVKFNWYVDGVEVHNAKTKPREEQYNSTYRVVSVLTVLHQDWLNGKEYKCKVSNKALPAPIEKTISKAKGQPRRPRVYTLPPSREEMTKNQVSLVCLVKGFYPSDIAVEWESNGQPENNYKTTPPVLDSDGSFFLYSVLTVDKSRWQQGNVFSCSVMHEALHNHYTQKSLSLSPG light 1: DIQMTQSPSSVSASVGDRVTITCRASQDINNWLAWYQRKPGDAPKILIYTASNLQSGVPSRFSGSGSGTDFTLTISSLQPEDFATYFCQQAHSLPITFGQGTRLEIKRTVAAPSVFIFPPSDEQLKSGTASVVCLLNNFYPREAKVQWKVDNALQSGNSQESVTEQDSKDSTYSLSSTLTLSKADYEKHKVYACEVTHQGLSSPVTKSFNRGEC heavy 2: QVQLVQSGAEVKKPGASVKVSCKASGYTFTSHWMHWVRYAPGQGLEWIGEFNPSNGRTNYNEKFKSKATMTVDTSTNTAYMELSSLRSEDTAVYYCASRDYDYDGRYFDYWGRGTLVTVSSASTKGPSVFPLAPSSKSTSGGTAALGCLVKDYFPEPVTVSWNSGALTSGVHTFPAVLQSSGLYSLSSVVTVPSSSLGTQTYICNVNHKPSNTKVDKKVEPKSCDKTHTCPPCPAPEAAGGPSVFLFPPKPKDTLMISRTPEVTCVVVDVSHEDPEVKFNWYVDGVEVHNAKTKPREEQYNSTYRVVSVLTVLHQDWLNGKEYKCKVSNKALPAPIEKTISKAKGQPRRPRVYTLPPSREEMTKNQVSLVCLVKGFYPSDIAVEWESNGQPENNYKTTPPVLDSDGSFFLYSVLTVDKSRWQQGNVFSCSVMHEALHNHYTQKSLSLSPG light 2: DIQMTQSPSSLSASVGDRVTITCSASSSVTYMYWYQRKPGDAPKLLIYDTSNLASGVPSRFSGSGSGTDYTFTISSLQPEDIATYYCQQWSSHIFTFGQGTKVEIKRTVAAPSVFIFPPSDEQLKSGTASVVCLLNNFYPREAKVQWKVDNALQSGNSQESVTEQDSKDSTYSLSSTLTLSKADYEKHKVYACEVTHQGLSSPVTKSFNRGEC |
| 0.0439 nM | 0.00223 nM | GOMP001_bsAb_042 (bispecific antibody, human IgG1, kappa, L234A L235A) heavy 1: EVQLVESGGGLVKTGGSLRLSCVASGFSFKKAWMNWVRYAPGKGLEWVGRIKRNTDGGPADYAARVKGRFTLSRDDSKKTLYLQMNSLKTEDTAVYYCTTLDSSSWYVGYYYMDVWGRGTTVTVSSASTKGPSVFPLAPSSKSTSGGTAALGCLVKDYFPEPVTVSWNSGALTSGVHTFPAVLQSSGLYSLSSVVTVPSSSLGTQTYICNVNHKPSNTKVDKKVEPKSCDKTHTCPPCPAPEAAGGPSVFLFPPKPKDTLMISRTPEVTCVVVDVSHEDPEVKFNWYVDGVEVHNAKTKPREEQYNSTYRVVSVLTVLHQDWLNGKEYKCKVSNKALPAPIEKTISKAKGQPRRPRVYTLPPSREEMTKNQVSLVCLVKGFYPSDIAVEWESNGQPENNYKTTPPVLDSDGSFFLYSVLTVDKSRWQQGNVFSCSVMHEALHNHYTQKSLSLSPG light 1: DIQMTQSPSSVSASVGDRVIITCRASQDINNWLAWYLRRPGDAPKLLIYAASSLQSGVPSRFSGSGSGTDFTLTIGSLQPEDFATYYCQQAHSLPITFGQGTRLEIQRTVAAPSVFIFPPSDEQLKSGTASVVCLLNNFYPREAKVQWKVDNALQSGNSQESVTEQDSKDSTYSLSSTLTLSKADYEKHKVYACEVTHQGLSSPVTKSFNRGEC heavy 2: QVQLVQSGAEVKKPGASVKVSCKASGYTFTSHWMHWVRYAPGQGLEWIGEFNPSNGRTNYNEKFKSKATMTVDTSTNTAYMELSSLRSEDTAVYYCASRDYDYDGRYFDYWGRGTLVTVSSASTKGPSVFPLAPSSKSTSGGTAALGCLVKDYFPEPVTVSWNSGALTSGVHTFPAVLQSSGLYSLSSVVTVPSSSLGTQTYICNVNHKPSNTKVDKKVEPKSCDKTHTCPPCPAPEAAGGPSVFLFPPKPKDTLMISRTPEVTCVVVDVSHEDPEVKFNWYVDGVEVHNAKTKPREEQYNSTYRVVSVLTVLHQDWLNGKEYKCKVSNKALPAPIEKTISKAKGQPRRPRVYTLPPSREEMTKNQVSLVCLVKGFYPSDIAVEWESNGQPENNYKTTPPVLDSDGSFFLYSVLTVDKSRWQQGNVFSCSVMHEALHNHYTQKSLSLSPG light 2: DIQMTQSPSSLSASVGDRVTITCSASSSVTYMYWYQRKPGDAPKLLIYDTSNLASGVPSRFSGSGSGTDYTFTISSLQPEDIATYYCQQWSSHIFTFGQGTKVEIKRTVAAPSVFIFPPSDEQLKSGTASVVCLLNNFYPREAKVQWKVDNALQSGNSQESVTEQDSKDSTYSLSSTLTLSKADYEKHKVYACEVTHQGLSSPVTKSFNRGEC |
| 0.0706 nM | 0.0122 nM | GOMP001_bsAb_043 (bispecific antibody, human IgG1, kappa, L234A L235A) heavy 1: QVQLVQSGAEVKKPGASVKVSCKASGYTFTSHWMHWVRKAPGQGLEWIGEFNPSNGRTNYNEEFKSKATMTVDTSTNTAYMELSSLRSEDTAVYYCASRDYDYDGRYFDYWGQGTLVTVSSASTKGPSVFPLAPSSKSTSGGTAALGCLVADYFPEPVTVSWNSGALTSGVHTFPAVLQSSGLYSLSSVVTVPSSSLGTQTYICNVNHKPSNTKVDEKVEPKSCDKTHTCPPCPAPEAAGGPSVFLFPPKPKDTLMISRTPEVTCVVVDVSHEDPEVKFNWYVDGVEVHNAKTKPREEQYNSTYRVVSVLTVLHQDWLNGKEYKCKVSNKALPAPIEKTISKAKGQPREPQVYTLPPSREEMTDNQVSLTCLVKGFYPSDIAVEWESNGQPENNYKTTPPVLMSDGSFFLASKLTVDKSRWQQGNVFSCSVMHEALHNHYTQKSLSLSPG light 1: RIQMTQSPSSLSASVGDRVTITCSASSSVTYMYWYQDKPGKAPKLLIYDTSNLASGVPSRFSGSGSGTDYTFTISSLQPEDIATYYCQQWSSHIFTFGQGTKVEIKRTVAAPSVFIFPPSDKQLKSGTARVVCLLNNFYPREAKVQWKVDNALQSGNSQESVTEQDSKDSTYSLSSTLTLSKADYEKHKVYACEVTHQGLSSPVTKSFNRGEC heavy 2: EVQLVESGGGLVKTGGSLRLSCVASGFSFKKAWMNWVRYAPGKGLEWVGRIKRNTDGGTADYAARVKGRFTLSRDDSKKTLFLQMNSLKTEDTAVYYCTTLDSSSYYVGYYYMDVWGRGTTVTVSSASTKGPSVFPLAPSSKSTSGGTAALGCLVKDYFPEPVTVSWNSGALTSGVHTFPAVLQSSGLYSLSSVVTVPSSSLGTQTYICNVNHKPSNTKVDKKVEPKSCDKTHTCPPCPAPEAAGGPSVFLFPPKPKDTLMISRTPEVTCVVVDVSHEDPEVKFNWYVDGVEVHNAKTKPREEQYNSTYRVVSVLTVLHQDWLNGKEYKCKVSNKALPAPIEKTISKAKGQPRRPRVYTLPPSREEMTKNQVSLVCLVKGFYPSDIAVEWESNGQPENNYKTTPPVLDSDGSFFLYSVLTVDKSRWQQGNVFSCSVMHEALHNHYTQKSLSLSPG light 2: DIQMTQSPSSVSASVGDRVTITCRASQDINNWLAWYQRKPGDAPKLLIYTASSLQSGVPSRFSGSGSGTDFTLTIGSLQPEDFATYYCQQAHSLPITFGQGTRLEIKRTVAAPSVFIFPPSDEQLKSGTASVVCLLNNFYPREAKVQWKVDNALQSGNSQESVTEQDSKDSTYSLSSTLTLSKADYEKHKVYACEVTHQGLSSPVTKSFNRGEC |
| 0.297 nM | 0.022 nM | GOMP001_bsAb_041 (bispecific antibody, human IgG1, kappa, L234A L235A) heavy 1: QVQLVQSGAEVKKPGASVKVSCKASGYTFTSHWMHWVRKAPGQGLEWIGEFNPSNGRTNYNEEFKSKATMTVDTSTNTAYMELSSLRSEDTAVYYCASRDYDYDGRYFDYWGQGTLVTVSSASTKGPSVFPLAPSSKSTSGGTAALGCLVADYFPEPVTVSWNSGALTSGVHTFPAVLQSSGLYSLSSVVTVPSSSLGTQTYICNVNHKPSNTKVDEKVEPKSCDKTHTCPPCPAPEAAGGPSVFLFPPKPKDTLMISRTPEVTCVVVDVSHEDPEVKFNWYVDGVEVHNAKTKPREEQYNSTYRVVSVLTVLHQDWLNGKEYKCKVSNKALPAPIEKTISKAKGQPREPQVYTLPPSREEMTDNQVSLTCLVKGFYPSDIAVEWESNGQPENNYKTTPPVLMSDGSFFLASKLTVDKSRWQQGNVFSCSVMHEALHNHYTQKSLSLSPG light 1: RIQMTQSPSSLSASVGDRVTITCSASSSVTYMYWYQDKPGKAPKLLIYDTSNLASGVPSRFSGSGSGTDYTFTISSLQPEDIATYYCQQWSSHIFTFGQGTKVEIKRTVAAPSVFIFPPSDKQLKSGTARVVCLLNNFYPREAKVQWKVDNALQSGNSQESVTEQDSKDSTYSLSSTLTLSKADYEKHKVYACEVTHQGLSSPVTKSFNRGEC heavy 2: EVQLVESGGGLVKTGGSLRLSCVASGFSFKKAWMNWVRYAPGKGLEWVGRIKRNTDGGPADYAARVKGRFTLSRDDSKKTLYLQMNSLKTEDTAVYYCTTLDSSSWYVGYYYMDVWGRGTTVTVSSASTKGPSVFPLAPSSKSTSGGTAALGCLVKDYFPEPVTVSWNSGALTSGVHTFPAVLQSSGLYSLSSVVTVPSSSLGTQTYICNVNHKPSNTKVDKKVEPKSCDKTHTCPPCPAPEAAGGPSVFLFPPKPKDTLMISRTPEVTCVVVDVSHEDPEVKFNWYVDGVEVHNAKTKPREEQYNSTYRVVSVLTVLHQDWLNGKEYKCKVSNKALPAPIEKTISKAKGQPRRPRVYTLPPSREEMTKNQVSLVCLVKGFYPSDIAVEWESNGQPENNYKTTPPVLDSDGSFFLYSVLTVDKSRWQQGNVFSCSVMHEALHNHYTQKSLSLSPG light 2: DIQMTQSPSSVSASVGDRVIITCRASQDINNWLAWYLRRPGDAPKLLIYAASSLQSGVPSRFSGSGSGTDFTLTIGSLQPEDFATYYCQQAHSLPITFGQGTRLEIQRTVAAPSVFIFPPSDEQLKSGTASVVCLLNNFYPREAKVQWKVDNALQSGNSQESVTEQDSKDSTYSLSSTLTLSKADYEKHKVYACEVTHQGLSSPVTKSFNRGEC |
